Kd data for two molecules are collected here from patent US20130089497A1 (Genentech, published 2013).

Residue numbers refer to the chain shown, from its start.

Test [1] deals with T1, cynomolgus FcRH5 on stably transfected SVT2 cells (cynomologous monkey).
T1 construct: also called cyno FcRH5; cynoFcRH5
T1 chain: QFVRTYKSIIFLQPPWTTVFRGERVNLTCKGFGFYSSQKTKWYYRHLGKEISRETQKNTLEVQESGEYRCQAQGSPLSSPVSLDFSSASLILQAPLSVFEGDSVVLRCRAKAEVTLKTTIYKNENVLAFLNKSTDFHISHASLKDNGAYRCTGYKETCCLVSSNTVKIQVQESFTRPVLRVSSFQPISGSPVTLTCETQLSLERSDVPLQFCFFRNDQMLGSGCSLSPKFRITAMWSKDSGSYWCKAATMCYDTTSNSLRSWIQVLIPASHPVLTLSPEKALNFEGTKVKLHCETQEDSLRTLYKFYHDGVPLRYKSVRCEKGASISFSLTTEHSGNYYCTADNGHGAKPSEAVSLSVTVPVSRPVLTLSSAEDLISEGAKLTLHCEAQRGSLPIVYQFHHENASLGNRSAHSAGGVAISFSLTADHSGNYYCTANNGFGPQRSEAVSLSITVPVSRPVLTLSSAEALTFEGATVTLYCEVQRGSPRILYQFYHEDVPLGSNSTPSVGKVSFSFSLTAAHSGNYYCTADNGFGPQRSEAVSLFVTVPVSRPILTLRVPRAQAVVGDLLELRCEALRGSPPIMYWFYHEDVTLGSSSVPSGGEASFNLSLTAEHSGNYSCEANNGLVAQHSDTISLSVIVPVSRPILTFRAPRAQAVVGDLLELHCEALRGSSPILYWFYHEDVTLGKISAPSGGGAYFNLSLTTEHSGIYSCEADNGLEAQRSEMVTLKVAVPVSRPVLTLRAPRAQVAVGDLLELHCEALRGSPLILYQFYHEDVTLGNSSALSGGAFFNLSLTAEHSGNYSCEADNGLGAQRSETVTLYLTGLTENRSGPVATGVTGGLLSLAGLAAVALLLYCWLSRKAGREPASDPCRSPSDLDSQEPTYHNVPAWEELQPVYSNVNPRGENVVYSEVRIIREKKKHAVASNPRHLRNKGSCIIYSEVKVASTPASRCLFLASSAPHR
The test is described as follows: Scatchard analysis: 0.5 nM 125I-labeled antibody competed with the unlabeled antibody (50 to 0.02 nM) on SVT2.cyFcRH5 cells, 4 h at 4 C; St. Error 0.027. As for the experimental part:
(§1) To further determine binding of the FcRH5 murine antibodies and IgG clones, binding of iodinated IgG variants to OPM2 cells expressing human FcRH5 and SVT2 cells expressing cynomologous FcRH5, Scatchard analysis was performed (Table 9A).
(§2) For Scatchard analysis, 0.5 nM I¹²⁵ labeled murine or IgG clone anti-FcRH5 was competed against unlabeled murine or IgG clone anti-FcRH5, respectively, ranging from 50 to 0.02 nM (12 step 1:2 serial dilution) in the presence of a transfected OPM2 line stably expressing human-FcRH5 and a transfected SVT2 line stably expressing cynomologous-FcRH5. After a four hour incubation at 4° C., cells were washed and cell pellet counts were read by a gamma counter (1470 WIZARD Automatic Gamma Counter; Perkin Elmer, Walthem, Mass.). All points were done in triplicate and counted for 10 minutes. The average CPM was used for Kd calculation using the New Ligand (Genentech, South San Francisco, Calif.) program.

Test [2] deals with T2, human FcRH5 on stably transfected cells (BJAB.huFcRH5, OPM2.huFcRH5) (human, UniProt Q96RD9 16-977).
T2 construct: also called BJAB-FcRH5; OPM2-FcRH5
T2 chain: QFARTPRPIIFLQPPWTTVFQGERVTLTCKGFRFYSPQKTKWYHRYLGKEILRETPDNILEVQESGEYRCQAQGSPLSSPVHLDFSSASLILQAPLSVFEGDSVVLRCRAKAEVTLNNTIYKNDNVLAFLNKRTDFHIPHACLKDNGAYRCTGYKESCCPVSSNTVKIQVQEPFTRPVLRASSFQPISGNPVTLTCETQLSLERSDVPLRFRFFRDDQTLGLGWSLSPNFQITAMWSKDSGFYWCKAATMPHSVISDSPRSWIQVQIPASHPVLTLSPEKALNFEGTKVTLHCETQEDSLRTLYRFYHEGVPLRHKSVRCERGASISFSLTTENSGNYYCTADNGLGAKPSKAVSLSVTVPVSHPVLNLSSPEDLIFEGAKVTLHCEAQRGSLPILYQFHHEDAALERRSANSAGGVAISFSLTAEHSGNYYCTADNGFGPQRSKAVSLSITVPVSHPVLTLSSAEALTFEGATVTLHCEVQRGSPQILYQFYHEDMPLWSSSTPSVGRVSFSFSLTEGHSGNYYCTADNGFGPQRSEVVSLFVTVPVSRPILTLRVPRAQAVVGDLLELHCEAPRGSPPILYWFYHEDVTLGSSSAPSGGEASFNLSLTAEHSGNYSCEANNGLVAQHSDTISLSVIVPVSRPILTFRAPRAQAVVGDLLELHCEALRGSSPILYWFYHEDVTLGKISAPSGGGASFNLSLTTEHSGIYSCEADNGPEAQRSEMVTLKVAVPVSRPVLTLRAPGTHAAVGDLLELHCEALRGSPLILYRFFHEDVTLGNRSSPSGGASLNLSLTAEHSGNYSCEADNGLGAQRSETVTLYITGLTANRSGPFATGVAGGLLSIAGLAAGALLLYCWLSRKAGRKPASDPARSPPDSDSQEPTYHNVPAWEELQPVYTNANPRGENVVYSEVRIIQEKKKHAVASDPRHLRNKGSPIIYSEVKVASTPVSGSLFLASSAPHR
The test is described as follows: Scatchard analysis: 0.5 nM 125I-labeled antibody competed with the unlabeled antibody (50 to 0.02 nM) on OPM2.huFcRH5 cells, 4 h at 4 C; St. Error 0.012. The method, then: as §1, §2

For test [3], the target named is T1, cynomolgus FcRH5 on stably transfected …. The test is described as follows: Scatchard analysis: 0.5 nM 125I-labeled antibody competed with the unlabeled antibody (50 to 0.02 nM) on SVT2.cyFcRH5 cells (printed SVT2.cyFcRHS), 4 h at 4 C; St. Error 0.012. As for the experimental part: as §1, §2
The target in test [4] is T2, human FcRH5 on stably transfected cells …. The experiment in a line: Scatchard analysis: 0.5 nM 125I-labeled antibody competed with the unlabeled antibody (50 to 0.02 nM) on OPM2.huFcRH5 cells, 4 h at 4 C; St. Error 0.027. The method, then: as §1, §2

B1: humanized anti-FcRH5 antibody 13G9 version 1 (antibody, human IgG1, V domains shown)
VH: EVQLVQSGGGLVQPGGSLRLSCAASGYTFTNYGMNWVRQAPGKGLEWVGWVNTYTGEPTYTDDFKGRFTFSVDTSKSTVYLQMNSLRAEDTAVYYCARRSIPYYYAMDYWGQGTLVTVS
VL: DIQMTQSPSSLSASVGDRVTITCKASQNVGSNVAWYQQKPGKAPKALIYSASYRYSGVPSRFSGSGSGTDFTLTISSLQPEDFATYYCQQYKTWTFGQGTKVEIKR
notes: also called hu13G9.v1; hu13G9 v1
The Kd is the concentration at which binding is half-saturated. A low value points to higher affinity. Turning to B1, the Kd in test [1] turned out to be 0.56 nM; in test [2] it was 0.2 nM.

B2: humanized anti-FcRH5 antibody hu13G9.1b (antibody, human IgG1, V domains shown)
VH: B1 VH
VL: B1 VL with Y87F
notes: Full IgG as hu13G9.1a (human IgG1, kappa)
Turning to B2, the Kd in test [3] was 0.53 nM; in test [4] it was 0.3 nM.
